Test results: US10975142B2, “Endotrophin neutralization and use thereof” (THE BOARD OF REGENTS OF THE UNIVERSITY OF TEXAS SYSTEM, priority 2013, dated 2021)

Key:
[1] = target: T1, native form of endotrophin protein (Mus musculus, UniProt E9PWQ3); experiment: capture of IRD-800 labeled native endotrophin by monoclonal antibodies (Protein G Sepharose pull-down); format: binding; settings: 2 hours at room temperature, rat-IgG as control
T1 construct: made in house; purified from conditioned media by gel filtration
T1 sequence (E9PWQ3 with tags, fused parts or gaps): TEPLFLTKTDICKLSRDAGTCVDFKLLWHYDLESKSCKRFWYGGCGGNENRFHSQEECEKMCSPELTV
From the text: FIGS. 9A-9C. Generation of endotrophin-specific antibodies. FIG. 9A. HEK-293 cell produced mouse endotrophin was subjected to Western blotting using rabbit anti-mouse endotrophin polyclonal antibody. FIG. 9B. Bacterially produced GST-fused recombinant human endotrophin protein was subjected to western blotting using a rabbit anti-human endotrophin polyclonal antibody. GST protein was used as a negative control. The arrow points at endotrophin. FIG. 9C. […] IRD (infrared dye)-800 labeled native form of endotrophin protein was incubated with either endotrophin monoclonal antibodies, including 4D1, 4F8, 10B6-A11, 10B6-B5, and 10B6-C3 or a rat-IgG for 2 hours at room temperature and subsequently incubated with Protein G Sepharose for 1 hour. The protein-Sepharose complex was separated on a 10-20% Tricine gel after 3 times washing with PBS. Captured endotrophin protein was visualized on a Licor Odyssey Infrared Scanner (Licor Bioscience). Green color represents the IRD800 channel.

[2] = analysis of ETP homing (IRD-800 labeled ETP, tail vein); format: in vivo, mouse
Procedure: FIGS. 2A-2D: ETP levels in human cancer specimens and its target tissues. (FIG. 2A and FIG. 2B) Human cancer tissues compared with those of benign tissues were immunostained with human ETP-specific polyclonal antibody. Human samples for breast cancer (FIG. 2A) and colon cancer (FIG. 2B) were analyzed. […] (FIG. 2C and FIG. 2D) Whole body in vivo imaging of injected ETP. IRD-800 fluorescence-labeled ETP protein (10 μg) was intravenously injected into WT, 8-week-old PyMT, and 10-week-old PyMT mice by tail vein. (FIG. 2C) ETP levels were visualized by the Licor Infrared Scanner 10-90 minutes after injection. Arrows indicate mammary tumors. L, liver; B, bladder; T, tumor. IgG was used as a negative control. (FIG. 2D) Tissues were excised 2 hours after injection, and ETP-positive fluorescence signals were determined with a Licor Infrared Scanner. Quantified values were normalized to total area and represented as percentage of WT. ***P<0.001.
The homing of ETP in circulation was determined by injecting fluorescently labeled ETP into tail veins. ETP and IgGs were labeled with IRDye800 CW NHS Ester (Licor Bioscience) at a 1:1 molar ratio (dye/protein), according to the manufacturer's instructions. Whole-body fluorescence images were collected on the Odyssey scanner (Licor Bioscience). […] Quantified values were normalized to the total area of each organ.

[3] = tested on: MCF7; experiment: cell number counts with recombinant endotrophin protein; format: cell-based, human; settings: MCF-7, purified ETP
Procedure: (§1) FIGS. 15A-15D. Endotrophin has a limited effect on tumor cell proliferation. FIG. 15A. […] An equal number of cancer cells were freshly isolated from tumor tissues of PyMT (ctrl-cancer cells) and PyMT/endotrophin (ETP^+-cancer cells) and implanted into WT mice (1×10^6 cells/mouse). Tumor volume was determined 1 month post-implantation. Quantitative results are represented as mean±SEM (n=7/group). p=n.s vs. Ctrl-cancer cells by unpaired t-test. FIG. 15B. Met-1 cells were seeded into the 96 well plates and incubated with DMEM/10% FBS/PBS, DMEM/10% FBS/endotrophin, or conditioned media acquired from HEK293 or HEK293/endotrophin-overexpressing cells for 24 hours. Mitotic activity was measured with a Mitotic Index Assay Kit (Active Motif) following the manufacturer's protocol. Paclitaxel (1 μM) was used as a positive control of mitosis. Quantified results are represented as mean±SEM (n=10/group) p=n.s vs. PBS or Ctrl-media by unpaired t-test. FIG. 15C. Human breast cancer cells, MCF7 (0.1×10^5) were plated in the 24 well plates with or without recombinant endotrophin protein and cell numbers were counted over time. The quantification of results is represented as mean±SEM (n=6/group, triplicate). p=n.s vs. PBS by unpaired t-test. FIG. 15D. […] Endomucin positive area was quantified and represented as mean±SEM (multiple images, n=4/group). ***p=0.0008 vs. ctrl by unpaired t-test. Scale bars: 200 μm.

[4] = tested on: Met-1 cells; experiment: allografts of Met-1 cells with ETP or PBS and 1D11 or IgG in a Matrigel plug; format: in vivo, mouse; settings: ETP 20 ng/plug vs PBS
Procedure: FIGS. 6A-6H: ETP augments metastasis through enforcing TGF-β-dependent EMT. (FIG. 6A) E-cadherin immunostaining for tumor tissues from PyMT and PyMT/ETP. (FIG. 6B and FIG. 6C) SBE-luciferase reporter assay. See Supplemental Methods for details. Data represent fold increase (3 independent experiments). **P<0.01, *P<0.05, 2-way ANOVA. pRA-ctrl, empty; pRA-sETP, secretion form; pRA-ETP, intracellular form. (FIGS. 6D-6G) Allografts of Met-1 cells in the presence of either ETP (20 ng/plug) or PBS mixed with 1D11 or IgG (10 μg/plug) within a Matrigel plug. 10 days after implantation, additional 1D11 or IgG (100 μg) was i.p. injected once a week during tumor progression. (FIG. 6D) Tumor volumes represent means±SEM (n=5 per group). *P<0.05, 2-way ANOVA. (FIG. 6E) H&E staining. The ratio of stromal area in tumor tissues was quantified. Data represent mean±SEM (n=5 per group). *P<0.05, unpaired t test. T; tumor and S; stroma. (FIG. 6F) Fibrosis was determined by Masson's Trichrome C stain. Data represent mean±SEM (n=5 per group). **P<0.01, ***P<0.001, unpaired t test. (FIG. 6G) Western blotting for EMT markers E-cadherin, vimentin, and α-SMA. β-actin, loading control. Data represent fold increase (n=5 per group). *P<0.05, **P<0.01, ***P<0.001, unpaired t test. […] 20 days post injection, metastasized cancer cells in the lung tissues were determined by fluorescence intensity. […]

[5] = tested on: Met-1 cells; experiment: Mitotic Index Assay with endotrophin; format: cell-based, mouse; settings: Met-1, purified ETP, 24 hours
Procedure: as §1

[6] = target: T2, ETP (Mus musculus, UniProt E9PWQ3); experiment: in vivo Matrigel bioassay (stromal cell recruitment into plugs); settings: recombinant ETP 100 ng/plug vs PBS, mammary fat pads of WT mice
T2 sequence (E9PWQ3 with tags, fused parts or gaps limits assumed): T1 sequence (E9PWQ3 with tags, fused parts or gaps)
Procedure: (§2) FIGS. 7A-7I: ETP acts as a chemokine augmenting tumor growth. […] Tumor volume was determined 1 month after implantation (representative images). Data represent mean±SEM (n=5 per group). ***P<0.001, unpaired t test. (FIG. 7B) In vivo Matrigel bioassay. Matrigel (50 μl) was mixed with ETP (100 ng/plug) or PBS and implanted into WT mice in the presence of IgG, 1D11, or 10B6 (20 μg/plug). 2 days after implantation, plugs were excised and stained for FIG. 7H & FIG. 7E. Scale bars: 100 μm. (FIGS. 7C-7H) Cancer cells were plated in the bottom chamber 1 day prior to seeding MS-1 cells (5×10^5 cells/well) and macrophages (1×10^5 cells/well) atop the membrane chamber in Transwell and incubated for 18-24 hours (FIG. 7C). (FIGS. 7D, 7E, 7F, 7G) Representative images of multiple independent experiments. Scale bars: 100 μm. (FIG. 7H) Quantitation (mean±SEM; n=3 per group). ***P<0.001, […], unpaired t test. (FIG. 7I) MS-1 migration assay. MS-1 cells (5×10^5 cells/well) were plated atop the chamber in Transwell and incubated for 24 hours. Chemotaxis was set up by following cell migration from DMEM/serum-free to DMEM/2% FBS/PBS or DMEM/2% FBS/ETP protein (1 μg/well). Images are representative of multiple independent experiments. Data represent mean±SEM (n=3 per group). ***P=0.008, unpaired t test. Scale bars: 100 μm.

[7] = tested on: MS-1 cells; experiment: MS-1 migration assay (Transwell); format: cell-based, mouse; settings: ETP protein 1 μg/well, 24 hours
Procedure: as §2, with “Chemotaxis was set up by following cell migration from DMEM/serum-free to DMEM/2% FBS/PBS or DMEM/2% FBS/ETP protein (1 μg/well). Images are representative of multiple independent experiments. Data represent mean±SEM (n=3 per group). ***P=0.008, unpaired t test. Scale bars: 100 μm.” left out
Thioglycollate-elicited macrophages or MS-1 in serum-free media were loaded into the upper chamber of a Transwell plate (8 μm pore size; Costar). […] 18 hours later, cells on the underside of the membrane were fixed with 10% formalin, stained with hematoxylin, and counted. […]

B1: 10B6-A11: rat anti-mouse endotrophin monoclonal antibody (antibody, V domains shown)
VH: QVQLQQSGPELAKPGSSVKISCKASGYTFTSYEMHWIKQRPGQGLEWIGYIYPESGSTGYNEKFKGKATLTVDKSSPTAYMQLSSLTPDNSAVYFCTRGLRVLGYVMDVWGHGTSVTVSS
VL: DVQLTQSPSFLSASVGDRVTINCKASQNINKYLNWYQQKLGEAPKRLIYNTNNLQTGIPSRFSGSASGTDYTLTISSLHPEDFATYFCLQHSSLYTFGAGTKLELK
With B1 the “capture of the native form of endotrophin protein” value (from here on “capture”) [1] was “efficiently capture”.

B2: 10B6-B5: rat anti-mouse endotrophin monoclonal antibody (antibody, V domains shown)
VH: B1 VH
VL: B1 VL
For B2, the “capture” value [1] was “efficiently capture”.

B3: 10B6-C3: rat anti-mouse endotrophin monoclonal antibody (antibody, V domains shown)
VH: B1 VH
VL: B1 VL
For B3, the “capture” value [1] was “efficiently capture”.

B4: ETP: cleaved C5 fragment of the COL6α3 chain, used as recombinant or purified protein (protein)
chain: T1 sequence (E9PWQ3 with tags, fused parts or gaps)
For B4, the “whole body in vivo distribution of labeled ETP” value ([2]; 10 μg i.v., PyMT mice, compared with control-labeled IgGs) was “predominantly observed in tumor lesions”, the “ETP fluorescence in excised tissues relative to mammary glands of WT mice” value ([2]; tissues excised 2 hours after injection) was “highly enriched in mammary tumor tissues” and the “cell proliferation (cell numbers over time)” value [3] was “not affected”. For the same molecule, the “tumor growth for Met-1 cells” value [4] was “significantly enhanced”, the “cell proliferation (mitotic activity)” value [5] was “not affected” and the “stromal cells recruited into Matrigel plugs” value [6] was “significantly more stromal cells”. The “MS-1 cells recruited (migration) vs controls” value [7] was “twice as many”.
